# T1: human CD70 expressed on the cell surface (human, UniProt P32970 1-193)
# T1 sequence (looked up): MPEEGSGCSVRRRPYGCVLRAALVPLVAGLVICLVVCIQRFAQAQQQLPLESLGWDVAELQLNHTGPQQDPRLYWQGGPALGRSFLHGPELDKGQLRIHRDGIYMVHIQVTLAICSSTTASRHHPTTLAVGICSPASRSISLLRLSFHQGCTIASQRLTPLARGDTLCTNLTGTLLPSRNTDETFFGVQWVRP
# B1: anti-CD70 human monoclonal antibody 2H5 (antibody, V domains shown)
# VH: QVQLVESGGGVVQPGRSLRLSCAASGFTFSSYIMHWVRQAPGKGLEWVAVISYDGRNKYYADSVKGRFTISRDNSKNTLYLQMNSLRAEDTAVYYCARDTDGYDFDYWGQGTLVTVSS
# VL: EIVLTQSPATLSLSPGERATLSCRASQSVSSYLAWYQQKPGQAPRLLIYDASNRATGIPARFSGSGSGTDFTLTISSLEPEDFAVYYCQQRTNWPLTFGGGTKVEIK
# notes: Fully human IgG with kappa light chain, from a hybridoma; human IgG1 isotype controls were used; also called HuMAb 2H5
# B2: non-fucosylated anti-CD70 human monoclonal antibody 2H5 (antibody, V domains shown)
# VH: B1 VH
# VL: B1 VL
# modifications: antibody lacking in fucosyl residues (expressed in FUT8-deficient CHO cell line Ms704-PF)
# How the values were obtained:
# [1] = biological target: T1, human CD70 expressed on the cell surface; experiment: cell-based or functional assay
# [2] = biological target: T1, human CD70 expressed on the cell surface; experiment: flow cytometry titration on A498 cells, PE anti-human IgG
# Protocol: Binding of the anti-CD70 human monoclonal antibodies was assessed by incubating 5×10⁵ cells with antibody at a starting concentration of 50 μg/ml and serially diluting the antibody at a 1:3 dilution. The cells were washed and binding was detected with a PE-labeled anti-human IgG Ab. Flow cytometric analyses were performed using a FACSCalibur flow cytometry (Becton Dickinson, San Jose, Calif.).
# [3] = biological target: human CD16 on effector cells (human, UniProt P08637 17-254); experiment: cell-based or functional assay
# Sequence of human CD16 on effector cells (P08637 17-254): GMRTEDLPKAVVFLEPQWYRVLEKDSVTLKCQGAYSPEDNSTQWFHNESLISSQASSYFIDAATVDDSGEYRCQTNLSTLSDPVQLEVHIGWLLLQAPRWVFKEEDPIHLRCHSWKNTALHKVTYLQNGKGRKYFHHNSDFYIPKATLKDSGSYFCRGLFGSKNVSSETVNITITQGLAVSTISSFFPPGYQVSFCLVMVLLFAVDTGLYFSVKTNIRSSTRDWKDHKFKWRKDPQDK
Binder,"EC50 of decrease in ^3H-thymidine incorporation, Hum-Zap internalization assay, 786-O cells [1] [nM]",EC50 (read off the curve) [2] [nM],"amount of anti-CD16 3G8 needed to reverse inhibition, 2H5NF against 2H5 [3] [fold]"
B1,0.942,~7,–
B2,–,–,~1000

# Reference: patent US20090028872A1 (Bristol-Myers Squibb, published 2009)
